# Measurements from paper PMC6957492, “Assembly and substrate recognition of curli biogenesis system” (Nature Communications, 2020).
# Entries after “also recorded” stand apart in the source; their conditions may differ.
# T1: CsgG nonamer (Escherichia coli, UniProt P0AEA2)
# T1 construct: made in house; host or cells: E. coli BL21 (DE3)
# T1 sequence (P0AEA2 whole entry, looked up): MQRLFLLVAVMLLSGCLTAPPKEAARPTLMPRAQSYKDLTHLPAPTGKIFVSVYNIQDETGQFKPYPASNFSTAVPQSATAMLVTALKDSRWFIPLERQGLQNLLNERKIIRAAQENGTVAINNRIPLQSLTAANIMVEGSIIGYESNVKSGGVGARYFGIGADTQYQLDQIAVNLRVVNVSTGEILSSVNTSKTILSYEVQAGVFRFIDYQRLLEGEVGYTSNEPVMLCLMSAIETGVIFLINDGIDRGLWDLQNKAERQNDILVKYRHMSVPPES
# T2: Wild-type CsgG (expressed alone) (E. coli K12, UniProt P0AEA2 16-277)
# T2 chain: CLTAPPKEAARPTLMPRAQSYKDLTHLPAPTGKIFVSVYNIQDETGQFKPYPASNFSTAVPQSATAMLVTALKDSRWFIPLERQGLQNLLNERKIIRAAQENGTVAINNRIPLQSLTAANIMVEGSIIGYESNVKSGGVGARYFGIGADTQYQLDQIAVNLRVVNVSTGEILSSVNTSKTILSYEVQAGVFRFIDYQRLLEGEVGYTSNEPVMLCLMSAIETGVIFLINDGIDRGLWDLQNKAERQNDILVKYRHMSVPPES
# T3: Wild-type CsgG (expressed alone) (E. coli K12, UniProt P0AEA2 16-277)
# T3 construct: also called CsgG nonamer; nonameric CsgG
# T3 sequence (looked up): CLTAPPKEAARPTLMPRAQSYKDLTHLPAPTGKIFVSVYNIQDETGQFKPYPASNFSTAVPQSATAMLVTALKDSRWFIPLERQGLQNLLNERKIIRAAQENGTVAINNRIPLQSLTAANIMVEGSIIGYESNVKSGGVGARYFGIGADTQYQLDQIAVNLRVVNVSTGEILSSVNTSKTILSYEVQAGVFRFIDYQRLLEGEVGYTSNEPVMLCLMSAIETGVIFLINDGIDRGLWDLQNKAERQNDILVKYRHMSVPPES
# B1: CsgFN17R: N17R-mutated CsgF (protein, UniProt P0AE98 20-138, looked up, variant N17R)
# Curli production …: GTMTFQFRNPNFGGNPRNGAFLLNSAQAQNSYKDPSYNDDFGIETPSALDNFTQAIQSQILGGLLSNINTGKPGRMVTNDYIVDIANRDGQLQLNVTDRKTGQTSTIQVSGLQNNSTDF
# B2: CsgE: soluble accessory factor that binds CsgG (protein)
# chain: VEVEVPGLLTDHTVSSIGHDFYRAFSDKWESDYTGNLTINERPSARWGSWITITVNQDVIFQTFLFPLKRDFEKTVVFALIQTEEALNRRQINQALLSTGDLAHDEF
# modifications: left off: His tag (from the Ni-NTA purification of the input), end not stated, state not stated
# Legend:
# [1] = test system: PapD2 and CpxP passage through CsgG; conditions: cited from earlier work
# Description: Tyr51, Asn55, and Phe56 residues of CsgG were reported to constitute three stacked concentric rings to form a pore structure in the nonameric channel, which was essential to limit the passage of the folded proteins[22] (Fig. 2a).
# [2] = test system: CsgA; conditions: CsgF and CsgB as baits (N-terminal MBP tag), CsgA C-terminal MBP tag
# Description: The cells were induced with 0.5 mM IPTG for 4 h at 37 °C. […] After incubation for 20 min, the mixture was loaded to a Strep-Tactin column (IBA). The beads were washed four times with a buffer having 25 mM Tris-HCl at pH 8.0, 150 mM NaCl, and eluted in a buffer having 25 mM Tris-HCl at pH 8.0, 150 mM NaCl, and 2.5 mM desthiobiotin. […] The samples were analyzed by 15% SDS–PAGE and detected by western blotting.
# [3] = test system: CsgB; assay: Pulldown assay of CsgB by CsgF domains; format: binding, E. coli; conditions: CsgB C-terminal MBP tag, CsgF parts N-terminal MBP tag; western blot
# [4] = test system: CsgG; assay: Pulldown assay of CsgF variants/domains with CsgG as bait; format: binding, E. coli K12; conditions: CsgF variants with C-terminal MBP tag
# Description: The procedure of CsgG purification was similar to that of the CsgFG complex. […] After incubation for 30 min, the mixture was loaded into a Strep-Tactin column (IBA). […] Individual CsgG and CsgF variants were purified as input by Strep-Tactin and Ni-NTA, respectively. The samples were analyzed by 15% SDS–PAGE and stained with Coomassie blue.
# CsgFGBD-MBP mutant variants were purified as soluble protein by Ni-NTA. CsgG were purified as membrane protein by Strep-Tactin and substituted by amphipole A8-35. CsgFGBD-MBP mutant variants (36 μM) and CsgG nonamer (2 μM) were mixed together at 4 °C for 2 h and then incubated with equal volume of Strep-Tactin beads at 4 °C for 1 h.
# Supplementary Figure 5. Interaction mode between CsgFN and CsgG. a, Interaction of CsgFN and CsgG. […] Two adjacent subunits of CsgG are shown in magenta and cyan, respectively. b, Hydrogen bonds and electrostatic interaction between CsgFN and CsgG. Hydrogen bonds are shown as red […]
# aromatic residues in CsgG. d, The hydrophobic interaction between CsgFN and CsgG. e, Pulldown assay between the CsgF(C-terminal MBP tag) mutant variants and CsgG. […] Source data are provided as a Source Data file.
# (§1) (1 picture or pasted object on this page, not shown here)
# [5] = test system: CsgB; conditions: cited from earlier work
# Description: CsgFC was flexible, and was observed as fuzzy densities on the extracellular side of the CsgFG channel (Fig. 1c and Supplementary Fig. 1d), which should be responsible for interacting with CsgB. To further clarify CsgF function, we first performed a pulldown assay using CsgG as a bait. […] Therefore, CsgF ...
# [6] = test system: CsgE; assay: Pulldown assay of different parts of CsgA with CsgE; format: binding, E. coli; conditions: C-terminal MBP tag on CsgA parts
# [7] = test system: curli production in E. coli K-12 strain BW25113; assay: Congo red secretion assay of CsgF, CsgA or CsgG variants; format: cell-based, E. coli K-12 BW25113
# Description: The E. coli K-12 strain BW25113 wild type (WT) and mutants were cultured overnight in LB at 37 °C. To induce curli production, 5 μl sample was spotted on YESCA plates (10 g/L casamino acids, 1 g/L yeast extract, and 20 g/L Bacto agar) supplemented with 100 μg/ml ampicillin and 90 μg/ml Congo red. The plates were incubated at 26 °C for 48 h. […] For overexpression assay in the ΔCsgE mutant strain, 3 μM IPTG was also supplemented in the YESCA plates.
# [8] = test system: CsgA; conditions: cited from earlier work
# [9] = test system: CsgG; assay: Pulldown assay of CsgE with CsgG; format: binding, E. coli; conditions: western blot
# Description: The CsgE and CsgG were transformed in E. coli BL21 (DE3) strain. […] After incubation for 30 min, CsgE alone and CsgE-CsgG mixture were loaded to Strep-Tactin columns (IBA), respectively. The beads were washed for four times with a buffer having 25 mM Tris pH 8.0, 150 mM NaCl and 0.02% DDM and then eluted by an elution buffer (25 mM Tris pH 8.0, 150 mM NaCl, 0.02% DDM and 25 mM desthiobiotin). […] The samples were analyzed using 15% SDS–PAGE and detected using western blotting.
# [10] = biological target: T1, CsgG nonamer; format: binding, E. coli K12; conditions: given in reply to Reviewer #1
# Description: as §1
# are provided as a Source Data file.
# [11] = biological target: T2, Wild-type CsgG (expressed alone); assay: ITC
# [12] = biological target: T3, Wild-type CsgG (expressed alone); assay: ITC; MicroCal ITC200, 25 °C; nonameric CsgG in amphipole A8-35 in the cell (2 or 10 μM), CsgFN-MBP (200 μM), CsgAN6 peptide (1 mM) or PeptideN (60 µM) in the syringe; 10 mM HEPES pH 7.5, 50 mM NaCl; conditions: both partners purified
molecule,measurement,setting,value
CsgF: soluble accessory factor of the curli secretion system,leakage of PapD2 and CpxP in the presence of CsgF,[1],considerably reduced leakage
same,interaction with CsgA in pulldown,[2],did not directly interact with CsgA
same,pulldown of CsgB,[3],full-length CsgF and CsgFC could
same,CsgF-CsgG interaction in pulldown,[4],CsgG can pulldown both the full-length CsgF and CsgFN
same,binding to CsgB,[5],can also bind to CsgB
CsgAR1-5: five C-terminal repeating units of CsgA,interaction of CsgA part with CsgE in pulldown,[6],CsgE bound to CsgAR1-5
B1,Congo red secretion phenotype (curli formation),"[7]; CsgF variants in ∆CsgF strain, YESCA/Congo red plates, 26 °C, 48 h",loss of the Congo red phenotype
same,Congo red secretion phenotype,[7]; N17R-mutated CsgF expressed in wild type (WT) strain,largely reduced Congo red phenotype
B2,inhibition of CsgA self-assembly into amyloid fibers,[8],inhibit self-assembly of CsgA into amyloid fibers
same,interaction of CsgE with CsgG in pulldown,[9],CsgG could pull-down CsgE; also recorded: interacts with the CsgG channel
same,CsgE-CsgG ITC interaction strength (in words),[10],mM level
GTMTFQFRNPNFGGNPR (source: synthetic peptide) [PeptideN_(N17R)],Kd,[11],14.1 nM
same,binding result,[12],binds
